Source: patent US7608695B2, “Substance with antithrombotic activity and method for detecting glycokallidin” (Ajinomoto Co., Inc., priority 1998, dated 2009)

Experiments:
[1] = test system: anti-glycocalicin antibodies; details: competitive ELISA, literature; cited from earlier work
[2] = target: T1, binding of von Willebrand factor and chimeric protein (glycoprotein Ib) (Homo sapiens, UniProt P04275+P07359); experiment: Detection of glycocalicin in plasma by ELISA using anti-mouse IgG-Fc antibodies; set-up: made in house; host or cells: CHOdhfr- cells transfected with pSDGPIbIgG1Fc; unpurified serum-free culture supernatant; details: diluted human plasma, based on reported blood concentration about 2 μg/ml
Experimental: Immobilization of a mixed solution of von Willebrand factor and botrocetin on a 96-well multititer plate was attained as follows. First, a physiological saline solution of von Willebrand factor (250 μg/ml) and a physiological saline solution of botrocetin (500 μg/ml), which were prepared in a conventional manner, were appropriately diluted, and mixed at the concentration ratios shown in FIG. 2. Then, 50 μl of each mixture was added to each well of a 96-well multititer plate (Maxisorp, produced by Nunc). […]
Each well was washed 5 times with TBS (150 μl) containing 0.05% Tween-20, and added with 100 μl of 100 mM NaHCO3 solution containing 10 mM MgCl2, in which p-nitrophenylphosphate was dissolved at 1 mg/ml, to carry out the color development reaction for about 1 hour. After the color development, absorbance at 405 nm was measured.
The detection was carried out in the same manner as that of Example 4 <1> except that von Willebrand factor was immobilized by using a mixed solution (TBS) containing 2.5 μg/ml of von Willebrand factor and 2.5 μg/ml of botrocetin, and a binding inhibition substance of which inhibitory activity was desired to be measured was added to the reaction of the immobilized von Willebrand factor and the culture supernatant of the chimeric protein producing cells. […]

[3] = target: T1, binding of von Willebrand factor and chimeric protein (glycoprotein Ib); experiment: Detection of glycocalicin in plasma using chimeric protein labeled with europium (Eu); set-up: made in house; host or cells: CHOK1 cells transfected with pMikGPIbFc; purified on a Protein A column and labelled with europium; details: diluted human plasma, based on reported blood concentration about 2 μg/ml
Experimental: The detection was carried out in the same manner as that of Example 4 <2> except that svon Willebrand factor was immobilized by using a mixed solution (TBS) containing 2.5 μg/ml of von Willebrand factor and 2.5 μg/ml of botrocetin, and a binding inhibition substance of which inhibitory activity was desired to be measured was added to the reaction of the immobilized von Willebrand factor and the chimeric protein labeled with europium (Eu).
Each human plasma independently prepared in the same manner as the above <1> were successively diluted 2-fold with TBS (8 times of dilution in total), and 25 μl each of the diluted plasma was added to each well of a von Willebrand factor immobilized plate prepared in the same manner as in Example 5 <1> (microtitration plate DELFIA, 1244-550, produced by Pharmacia Biotech, was used as the base plate). Further, 25 μl a solution of the chimeric protein labeled with europium (Eu) in assay buffer prepared in the same manner as in Example 4 <1> (100 ng/ml, Assay Buffer; 1244-106, produced by Pharmacia Biotech) was added to each well of the plate for reaction. The subsequent washing and measurement were performed in the same manner as in Example 5 <2>, and the average values of the results are shown in FIG. 7.

## glycocalicin: enzymatically cleaved extracellular portion of platelet membrane glycoprotein Ibα chain, about 135 kDa
[1]
  IC50 value of the glycocalicin concentration showing competitive inhibition: about 4 μg/ml
[2]
  Glycocalicin concentration showing 50% binding inhibition: about 400 ng/ml
[3]
  Glycocalicin concentration showing 50% binding inhibition: about 60 ng/ml
